Source: the DeepSol protein solubility set

Assay: soluble on expression in E. coli; label from the status in PepcDB or PDB records

Row | Sequence | soluble on expression in E. coli
1 | MSLNSVPNDLQTWKRFVKDGVLDEARLRKRIAESWHRCKKAEVNPYLEKGPKVLQQTELDQQSKKHSFFLTTAKPYLEKLLPAIKEMEMMALLIDSDGVVLALDGHPRALYEAKRINFVEGACWTETAVGTNAIGTALHISEPVAIQGSEHYSIASHLWNCSAAPIHHEDGSLAGVIDISCPAAGAHPHMLGIATAIAYAAERELAAKSREKELELISRFGERAASSVPMVLCNTKQHIISASMPIRTSMPDWQGRHLYELKERGYSIENAVTIGDGGTCFYLSEQKKKKAFRFNGVIGQSGRSQAMLMHLERAAATDASVCLSGETGTGKEVAARALHENSERRHGPFVAVNCGAIPSDLIESELFGYAEGAFTGAKRNGYKGAFQKANQGTLFLDEIGEISHSMQVALLRVLQERKITPIGGTKEIPVDIRVIAATHCDLRELAENGKIREDLFYRLHVYPIELPPLRDRTEDIPDLFEYYKQKNHWPGDLPSDFCNVLKQWKWPGNIRELFNVFERLSIRFPDGRLRDESLPALLEAAGLPASSAEKKPAAAGVLTFREQIQKDMMIKALESAKGNVSQAAKISGIPRSTFYKRLKKFNLSAESEGGSHHHHHH | soluble
2 | MSLNTISGTHFNYHQVCRRKLWLFSAGITMEHTSDLVYEGKLIHETTYQQRPERYQELELDGIKIDFYDAKNRVVHEVKKSNKISPAHRLQLLYYLYVLERNGVLGATGILEYPTLRKKEEVILSDIDRERIREIEQEILQIISHEDCPPVIDSGICKNCSYYEFCFSGEEQEGHHHHHH | soluble
3 | MSLNVVNSIFSKLSIAPMIDWTNSPFRTLMRLLAPNALLYTEMQTTGAVQNNPDRALYFNSVEHPLAIQLGGADKSALVKCAIIAEQKGFNEINLNLGCPSDKVQAGRFGACLMKEPEHVADCIRAIKQVVGIPVTAKTRIGIDNQDSYEFFRSFSLHLVEAGCDKLIIHARKAWLNGLNPKQNRTIPPVNYDYVYELKKEIPHIFITINGNILTVEEINNHLKHVDGVMLGRLACDNPYQIAEIHQALYPEFIKIKRSQLLMNYLDYWFDQSRANEGHHHHHH | not soluble
4 | MSLPDKFKRVHVVVMDSVGIGEAPDAAKFGDFDVDTFGHIAKHVGGLKMPEMGKLGLSNIREIEGIKKAEKPLAYYTKMQEASNGKDTMTGHWEIMGLYIDTPFRVFPDGFPDDLINQIEEKTGRKVIGNKPASGTEIMAELGEEHVKTGALIVYTSADSVLQIAAHEDVVPLEELYEICEFCRKITLDDPYMLGRIIARPFVGEPGAFVRTPNRHDYALKPFKPTVMDALKDGGKDVIAIGKISDIFDGEGVTESIRTKSNMDGMDQFIAVLDKDFNGMSFLNLVDFDALFGHRRDPQGYADALVDFDGRLVEVMEKLTDDDLLIITADHGNDPTYTGTDHTREFVPLLVYSPRFKNGGSELELRKTFADLGATVADNFDVKMPEYGTSFLRDLKEGHHHHHH | not soluble
5 | MSLPMLQVALDNQTMDSAYETTRLIAEEVDIIEVGTILCVGEGVRAVRDLKALYPHKIVLADAKIADAGKILSRMCFEANADWVTVICCADINTAKGALDVAKEFNGDVQIELTGYWTWEQAQQWRDAGIGQVVYARSRDAQAAGVAWGEADITAIKRLSDMGFKVTVTGGLALEDLPLFKGIPIHVFIAGRSIRDAASPVEAARQFKRSIAELWG | soluble
6 | MSLPNEQPGTGPADTTLEQQDTAAAEVGHPRRIRSFVRRAGRTSTGQQRAIDELGPRFLLPYAAAPLDWEAAFGRTGARRIFEIGFGMGETSAHIAQLRPDDDFLGVEVHEPGVGALLKLIGERGIGNVRIVSHDAVEVLAQMIPEGTLDGIHVFFPDPWHKKRHNKRRLIQGPFVARLAAHLRPGGYLHCATDWEEYAHQMLEVLSAEPLLENTADGFAPRPDYRPVTKFEKRGLRLGHGVWDVVFRKREGHHHHHH | not soluble
7 | MSLPVFSFEEPTGPHRVGTKLYHWVDHQRNEPYSKNPNDRRELMVQIWYPAAEKSKGDPEPYIRNINELSKGLEKTLSIPAFAFSHMELVKSHSFMDLQLSDSENHYPILLFSHGFNGFRNQNTFQVEELASQGYIVLSIDHTFDAAATVFPGGRTAYVQPINLTDEGDSHIKLWEEDVSFVLNQIEKLNENDETGFFTGRLDTSRIGMFGHSYGGATAAQILAKDSRVKAAINMDGTLYGEILPESGIGKPFLLMNAEEPDEADPFEVRERYGRGLAGGGMSMVIPHTDHTSFTDLHLFSPLLQSPGENPKEVHRIINEFSLAFFDQYVKQKDDGSTLKRLITQYPEVNFKINREGHHHHHH | soluble
8 | MSLQEGQNRKTSSLSILAIAGVEPYQEKPGEEYMNEAQLSHFKRILEAWRNQLRDEVDRTVTHMQDEAANFPDPVDRAAQEEEFSLELRNRDRERKLIKKIEKTLKKVEDEDFGYCESCGVEIGIRRLEARPTADLCIDCKTLAEIREKQMAGEGGSHHHHHH | soluble
9 | MSLQMKNYQQTLKRMSDRSSGFLGVGVHKQKLGIGAIAIVVTDKDGEIVDCEMMSGVTVFSRFKPLTDFVGMSLNECKVLLQNESVDIALHGALKKIEEQMNRKENVTTEGHHHHHH | not soluble
10 | MSLQPVPDAGPWGDYLCDSPWALINSSIYAMKEIEPEPDFILWTGDDTPHVPDEKLGEAAVLEIVERLTKLIREVFPDTKVYAALGNHDFHPKNQFPAGSNNIYNQIAELWKPWLSNESIALFKKGAFYCEKLPGPSGAGRIVVLNTNLYYTSNALTADMADPGQQFQWLEDVLTDASKAGDMVYIVGHVPPGFFEKTQNKAWFREGFNEKYLKVVRKHHRVIAGQFFGHHHTDSFRMLYDDAGVPISAMFITPGVTPWKTTLPGVVNGANNPAIRVFEYDRATLSLKEGHHHHHH | not soluble
11 | MSLQQSPSTSRPQLGIGLIGTGFMGRAHALAFGSANAALELPARIHLAALADADSARAEQCAQAWGFDRSHADWQQLVEDPRVQIVAITTPNHLHFPMAMAAIAAGKAVYCEKPLAVSLAQADEMQRSAKAAGVVTQVGYNYQHNPMIGLAREMIEAGELGDIVSFQGEFSEDFMGSATSPWSWRCEAAHAGGALADLGSHLLAMARYLLGDIEAVCADANTVHSQRPASPGSNEMRAIAVDDQTHALLRFASGARGTFSSSWLKHGYKNHLSFEISGTQGTLTYDQERLNELRIYRPGAPGRDGFQRLLAGPAQPGYAAFCPAPGHQLGYNELKALEVQALILAVCGQGSRGPDFEEAWQIERLATAIRLAAHEQRWVALDDEGHHHHHH | soluble
12 | MSLQRPKVKGMDQTLATSRKTSNACNVLALCTRDNPAILTIAHRGFWTATAENSLASVRAAVAAGVEMIEIDTQATADGRLVVIHDETLDRTTTGKGTVSALPFEVVRAAKLKAGAGGDGADVTDECVPTLEEVLEEARGRITVNIDTKFTRDLPQVMETVLRLGVEDQVLVKTDVDPEAERFEVLGSHWFGRIPHMPMFPVRKGKFAEDLRRIEALKAPMIEVKFTDIADLAEGRAEMERQNIRLWINSLDVSHCLDFNDTRALSNPEAVWGALAEAGTGAIQTDEVEAFTAWLKAGAGETGRAWTREGHHHHHH | soluble
13 | MSLQRPLGNHHDGPDTLLVTSDATQTELVTAETEKLRELITRARFVLFDFDGPICRLFAGHKAERVAVELVEWLEGRGLHALLSETEREALDPHIVLRAVDRRHPGSDLVAELEERLTKQELRAASSAMPTAYADPLIRTWTAVGARLAIATNNSPRVARKYVASRGLSACFAPHIYGRTQDLHLLKPDPHCLNRALNAMGAAPSASLMIGDTPSDYFAAQRAGVPFLGYARNDRKEKLLKEAGAEEIVGSLELVLRVLREQSASAREGHHHHHH | soluble
14 | MSLQSSVASGLSLNPEQLAVMAVGSGGVVVSLSAPAETVIVIVEHLDHKEEVIVQGREIVPSMDGHFDTIQELNSRFTESAPREKIEIGNRERPFKLHVVNVGDSRAMLVTRESYAALTRDHVPDDPGELRRIQETGDEGKKDNPSPSPITAKPDVRYFYATWEDVLILHSDGLLAESDRWEEVAGAALQCMESEPRIRGVATCLVQQAYRRGSTDNITALVSTFQKPSLNEGHHHHHH | soluble
15 | MSLQSSVKTERQYLSGRGCDDMVQWDFMCTGGNNSGKWTKIGVPSCWELQGFGTYQYGMKFYGKAFPEGVADEQGLYKYEFELPAEWNGKQIELVFEGSMTDTQVKINGRKAGSMHQGAFYRFIYNVSDRVFFGSKKKNVLEVTVSKESANAGVNLAERRADYWNFGGIFRPVFIVAKPAQNIDRLVIDAKADGNFYADCFLNMAVEGARVHTVITDAKGKKVAENTSDVRTGSDHASINFAVKSPELWTAETPAMYQATFTLLDKAGKTLHVENQKFGFRTIETRESDGLYINGRRVMIKGVNRHSFRPESGRTLSKAKNIEDVLLIKSMNMNAVRLSHYPADPEFFEACDSLGLYVMDELSGWHGKHETINGQKLVKEMITRDVNHPCIIWWSNGNEKGWNTELDGEFHKYDPQKRPVLHPQGNFSGYETMHYRSYGESQNYMRLPEIFMPTEFLHGLYDGGHGAGLYDYWEMMRKHPRCAGGFLWVLADEGVKRVDMNGFIDNCGNYGADGIVGPHHEKEGSYFTIKQVWCPIQIMTDSLDSQFDGKLKIENRYDFLNANTCRFTYKYVQLPSVTDKGGMKVMKQGEVNCPDIPAHGAGTLTIPAAVKGANALMLTVTDKQGNDLFTWSYKLDDVAGLQQVSAGNKPSYKETADALTVDAEGRTFTFSQKDGQLKGVKVGSRIISLANGPRFIAAKRSDRSMDQFYNHDDKEAEKKKTQYTTFDDAGRFTGFTVREEGNNVVVTANYKLGCFDQAVWTIAPDGTAAIDFTYNFSGVVDLMGVMFDYPEDKVLSKRWVGDGPYRVWQNRLHGPQLGVWENEYNDPIPAESFTYPEFKGYFANVQWMTLKTQEGTISICNRTPQNYVGVYQPRDGRDGLLYTFPATGISLMKVIPPVRNKVNTTDLIGPSSQAFWADGAYGGGITLKFEEGHHHHHH | soluble
16 | MSLQTDDPMIVAHRAGTRDFPENTVLAITNAVAAGVDGMWLTVQVSSDGVPVLYRPSDLATLTDGAGPVNSKTVQQLQQLNAGWNFTTPGVEGHPYRQRATPIPTLEQAIGATPPDMTLFLDLKQTPPQPLVSAVAQVLTRTGAAGRSIVYSTNADITAAASRQEGLQVAESRDVTRQRLFNMALNHHCDPQPDPGKWAGFELHRDVTVTEEFTLGSGISAVNAELWDEASVDCFRSQSGMKVMGFAVKTVDDYRLAHKIGLDAVLVDSPLAAQQWRHEGHHHHHH | not soluble
17 | MSLQTQLVHELVENQPTKLLIYVKNIRTIRTKKGEQMAFVDGDDTTGSISLTLFPTVFRQLRQSVEKGQVYYVEGKVERSTYNQELQILVQRIEKAQQVETSISDETCFIRITKDVEQTDVFQKMKEVLSRHAGHIPVIVYFEKTGKKIVLNEENWVAHTSASQQQLAYVLGEQNVIFKEGHHHHHH | soluble
18 | MSLRAIGLSNQVQHLKETVIAVEKKSKHKKTDDSLDISRIQYYMNNFVYYYINYSQDTADQRKTELENYYSFSTASMTDDVRKSRTLQTQRLISVEKEKDYYIALMRIGYEVDKKSYQMNLAVPFQMQRGLLAIVSQPYTVAEDLYLGKSKAFEKKTLDQVKELSKEQVSSIQKFLPVFFNKYALINKTDLKLLMKTPELMGKGFKVSELDLNNAIYYQEKKHQVVQLSVTFEDLVTGGTRSENFTLYLFKADNGWYVEEMYHYFKEGHHHHHH | soluble
19 | MSLRAKVTTKKYSVCEAPKVSEEELLSALVDRHKGKVQFIDFWATWCGGCRRTIKEYEPIKKELGENVAFVYLTGPSSIEKTWKILIQDIVGEHYWLNEKQWGYLWKHFQMKGLPMYLVIDKQGNIVKRFTHVTRKELEELLKQEINKEGHHHHHH | soluble
